Assay [1] concerns the target T1, rat ROBO4 (pCI-raROBO4-transfected HEK293 cells) (rat, UniProt Q80W87 38-949 at identity 0.93)).
T1 chain: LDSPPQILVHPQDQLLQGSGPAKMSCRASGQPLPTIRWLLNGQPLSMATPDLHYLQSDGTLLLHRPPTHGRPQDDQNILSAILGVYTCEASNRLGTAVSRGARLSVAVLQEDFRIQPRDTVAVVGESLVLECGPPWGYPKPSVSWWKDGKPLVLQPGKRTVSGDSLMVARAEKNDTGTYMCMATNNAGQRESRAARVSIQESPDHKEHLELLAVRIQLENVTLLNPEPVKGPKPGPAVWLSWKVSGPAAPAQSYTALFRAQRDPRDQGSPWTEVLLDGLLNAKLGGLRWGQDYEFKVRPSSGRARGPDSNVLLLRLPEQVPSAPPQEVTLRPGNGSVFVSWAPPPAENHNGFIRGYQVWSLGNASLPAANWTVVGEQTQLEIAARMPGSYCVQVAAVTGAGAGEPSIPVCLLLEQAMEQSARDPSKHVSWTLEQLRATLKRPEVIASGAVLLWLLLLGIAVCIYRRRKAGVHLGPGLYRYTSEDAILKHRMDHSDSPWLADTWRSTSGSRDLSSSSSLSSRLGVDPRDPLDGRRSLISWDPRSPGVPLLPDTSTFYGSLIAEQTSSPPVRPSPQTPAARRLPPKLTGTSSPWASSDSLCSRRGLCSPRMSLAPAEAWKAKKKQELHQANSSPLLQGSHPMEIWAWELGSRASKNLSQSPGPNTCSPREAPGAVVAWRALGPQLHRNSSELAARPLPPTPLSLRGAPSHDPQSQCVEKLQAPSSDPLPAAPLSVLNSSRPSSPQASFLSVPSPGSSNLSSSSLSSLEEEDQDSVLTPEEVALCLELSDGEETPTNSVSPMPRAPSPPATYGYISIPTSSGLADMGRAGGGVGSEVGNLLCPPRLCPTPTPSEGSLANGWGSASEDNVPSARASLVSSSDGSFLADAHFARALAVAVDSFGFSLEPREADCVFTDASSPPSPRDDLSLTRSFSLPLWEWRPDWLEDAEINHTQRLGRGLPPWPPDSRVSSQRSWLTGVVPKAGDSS
In words: flow cytometry, HEK293 cells transfected with pCI-raROBO4, anti-mouse IgG FITC; control histogram IgG (Mouse IgG2a). The protocol: (§1) HEK293 cells were inoculated at a concentration of 1.5×10⁶ cells/dish to a 60-mm dish (manufactured by Corning Inc.) and cultured overnight in a DMEM medium containing 10% FBS at 37° C. under 5% CO₂ conditions. On the next day, the HEK293 cells were transfected with pCI-hROBO4, pCI-mROBO4, pCI-raROBO4, pCI-FLAG-cynoROBO4-1, pCI-FLAG-cynoROBO4-2, pCI-hROBO1, pCI-hROBO2, or pCI-hROBO3 using FuGENE6 Transfection Reagent and further cultured overnight at 37° C. under 5% CO₂ conditions. On the next day, the expression vector-transfected cells were treated with TrypLE Express (manufactured by Life Technologies Corp.), washed with PBS containing 5% FBS, and then suspended in PBS containing 5% FBS. The obtained cell suspension was used in flow cytometry analysis.
(§2) Each cell suspension prepared in 4)-3-1 was centrifuged, and the supernatant was removed. Then, MAb1 or a negative control Mouse IgG2a was added at a concentration of 10 μg/mL to 2×10⁵ expression vector-transfected cells, and the resulting suspension was left standing at 4° C. for 1 hour. […] Data was analyzed using Flowjo. The histogram of FITC fluorescence intensity was prepared. The antibody was determined to bind in a cross-species manner when the histogram of MAb1 was shifted to a stronger fluorescence intensity region compared with the histogram of the negative control Mouse IgG2a.

Assay [2] addresses T2, full-length human ROBO4 (pCI-hROBO4-transfected HEK293/HEK293T cells) (human, UniProt Q8WZ75 28-1007).
T2 sequence: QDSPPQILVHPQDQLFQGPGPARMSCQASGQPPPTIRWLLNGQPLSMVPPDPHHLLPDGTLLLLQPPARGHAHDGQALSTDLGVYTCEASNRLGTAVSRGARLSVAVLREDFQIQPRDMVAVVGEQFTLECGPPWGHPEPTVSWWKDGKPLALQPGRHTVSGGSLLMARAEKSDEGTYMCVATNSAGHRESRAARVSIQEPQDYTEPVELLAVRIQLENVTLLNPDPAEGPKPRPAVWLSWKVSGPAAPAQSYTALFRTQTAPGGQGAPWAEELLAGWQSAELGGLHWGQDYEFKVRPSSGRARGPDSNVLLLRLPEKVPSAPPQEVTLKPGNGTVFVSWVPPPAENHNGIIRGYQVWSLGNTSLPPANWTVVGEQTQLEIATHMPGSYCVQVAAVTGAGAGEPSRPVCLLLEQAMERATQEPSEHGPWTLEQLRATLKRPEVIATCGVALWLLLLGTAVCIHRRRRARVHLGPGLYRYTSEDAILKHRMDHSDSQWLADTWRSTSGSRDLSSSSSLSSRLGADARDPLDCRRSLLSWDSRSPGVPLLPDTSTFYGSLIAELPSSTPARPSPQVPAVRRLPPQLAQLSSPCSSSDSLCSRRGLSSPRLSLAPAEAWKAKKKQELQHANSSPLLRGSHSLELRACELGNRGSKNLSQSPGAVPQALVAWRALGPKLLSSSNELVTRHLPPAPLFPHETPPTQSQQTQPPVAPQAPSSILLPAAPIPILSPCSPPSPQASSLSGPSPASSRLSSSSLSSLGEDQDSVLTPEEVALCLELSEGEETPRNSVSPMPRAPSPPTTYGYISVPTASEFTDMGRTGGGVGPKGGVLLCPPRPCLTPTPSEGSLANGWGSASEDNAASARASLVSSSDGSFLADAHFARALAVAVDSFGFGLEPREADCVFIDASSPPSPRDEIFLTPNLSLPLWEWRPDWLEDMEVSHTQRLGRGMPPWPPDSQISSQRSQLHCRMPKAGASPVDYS
The experiment in a line: flow cytometry, HEK293 cells transfected with pCI-hROBO4, antibody at 10 µg/mL, anti-mouse IgG FITC; control histogram IgG (Mouse IgG2a). The method, then:
as §1, §2

B1: anti-ROBO4 mouse monoclonal antibody MAb1 (antibody, mouse IgG1, V domains shown)
VH: EVQLVESGGGLVKPGGSLKLSCAASGFTFSTYAMSWVRQTPEKRLEWVATISNGGTYTYYPDSVKGRFTISRDNAENTLYLQMSSLRSEDTAMYFCARLIYYDYLDYWGHGTTLTVSS
VL: DAVMTQTPLSLPVSLGDQASISCRSSQSLENSNGNTYLNWYFQKPGQSPQLLIYRVSNRFSGVLDRFSGSGSGTDFTLKISRVEAEDFGVYFCLQVTHVPWTFGGGTKLEIKR
notes: Mouse IgG1 (gamma1), kappa light chain, purified from hybridoma supernatant; also called parent antibody MAb1
As to B1, the binding result in assay [1] is given as “no binding (tested: 10 µg/mL)”; in assay [2] it was “binds”.
